B1: TNFR1-4-2 target site (dsDNA)
DNA 1: GTCGGATTGGTGGGTTGGGGGCACAAGGCA
DNA 2: TGCCTTGTGCCCCCAACCCACCAATCCGAC
B2: EPO B-A target site (dsDNA)
DNA 1: TCTGGGGTGGGGGCTGGG
DNA 2: CCCAGCCCCCACCCCAGA

How the values were obtained:
[1] = target: TNFR1-4-2 six-zinc-finger DNA-binding domain (synthetic construct); assay: ELONA; high affinity and specificity; 50 uM ZnCl2, PBS pH 7.0, 10 nM site, salmon sperm competitor DNA, room temperature; settings: may carry C-terminal NLS-KOX1-c-myc in the ELISA construct; label: biotin
Protocol: (§1) DNA binding reactions contain the appropriate zinc finger peptide, biotinylated binding site (10 nM) and 5 μg competitor DNA (sonicated salmon sperm DNA), in a total volume of 50 μl, which contained: 1×PBS (pH 7.0), 1.25×10⁻³ U high affinity anti-HA-Peroxidase antibody (Boehringer Mannheim), 50 μM ZnCl₂, 0.01 mg/ml BSA, and 0.5% Tween 20. Incubations are performed at room temperature for 40 minutes. Black streptavidin-coated wells are blocked with 4% marvel for 1 hour. Binding reactions are added to the streptavidin-coated wells and incubated for a further 40 minutes at room temperature. Wells are washed 5 times in 100 μl wash buffer (1×PBS (pH 7.0), 50 µM ZnCl₂, 0.01 mg/ml BSA, and 0.5% Tween 20), and finally 50 μl QuantaBlu peroxidase substrate solution (Pierce) is added to detect bound HA-tagged zinc finger peptide. ELISA signals are read in a SPECTRAmax GeminiXS spectrophotometer (Molecular Devices) and analysed using SOFTmax Pro 3.1.2 (Molecular Devices).

[2] = target: EPOb-a-VP64 six-zinc-finger activator (synthetic construct); assay: ELONA; binds tightly and specifically; 50 uM ZnCl2, PBS pH 7.0, salmon sperm competitor DNA; values only in figure; settings: tags: SV40 NLS, VP64, c-myc 9E10, C-terminal HA for ELISA; label: biotin
Protocol: as §1

Chain of TNFR1-4-2 six-zinc-finger DNA-binding domain (synthetic construct) (chain, as listed by the source): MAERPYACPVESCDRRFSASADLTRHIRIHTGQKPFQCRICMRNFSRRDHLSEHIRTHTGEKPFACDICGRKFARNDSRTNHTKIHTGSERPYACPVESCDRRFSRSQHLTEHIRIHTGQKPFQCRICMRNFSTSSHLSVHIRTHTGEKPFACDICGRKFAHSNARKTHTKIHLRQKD

Binder | binding result [1] | binding result [2]
B1 | binds | 
B2 |  | binds
